# Data: PMC3839849
# Where two headings read alike, the source gives them in different places.
# What was measured:
# Test in all cases: ITC
# [1] = target: CaV1.2 IQ domain (Homo sapiens) (UniProt Q13936)
# [2] = target: CaV1.2 IQ domain TripleA mutant (CaV1.2 F1618A, F1619A, Y1622A) (human)
# [3] = target: CaV1.2 IQ domain TripleA mutant (CaV1.2 F1618A, F1619A, Y1622A) (human); remark: listed apart in the source
# [4] = target: CaV1.2 IQ domain (human)
substance,measurement,setting,value
"CaBP1 N-lobe, Q9NZU7",Kd,[1],1100 nM
calcium binding protein 1 (CaBP1) Δ2–15 (natural protein),Kd,[2],221 nM
same,Kd,[3],10.9 nM
same,dH,[3],-4.77 kcal/mol
same,stoichiometry N,[3],0.89
"calmodulin (CaM), full-length (from UniProt P0DP23 1-149) (natural protein)",dH,[3],-10.6 kcal/mol
same,Kd,[4],0.00085 nM
same,dH,[4],-5.74 kcal/mol
